Test results reported in the DeepSol protein solubility set.

Assay: soluble on expression in E. coli; label from the status in PepcDB or PDB records

## MSFDGFFLHHMTAELREQVLYGRIQKVNQPFERELVLTIRNNRQNYKLLLSAHPVFGRIQTTKAELPNPQNPNTYTMIMRKYLQGAVIEDIQQLENDRVLEISVSNKNEIGDSVKVTLVMEIMGKHSNIILIDKNENKIIESIKHVGFSQNSYRTILPGSTYIAPPKTDARNPFDISDENLFELLQTEDLSAKNLQKLFQGLGRDTANELSALLETDKLKNFRDFFNREVEPNLTTKAFSAVRFSDSQDQPEFETLSELLDYYYLDKAARDRVAQQASDLIHRVQNELEKNKKKLVKQEKELAATENAEEFRQKGELLTTFLSMVPNDKDSVELDNYYTGEKITIPLNVALTPNQNAQRYFKKYQKLKEAVKHLTGLIEETKQTINYLESVEFSLSQANMDEIEDIREELVQAGFMRRRSTDKRQKRKK
  soluble on expression in E. coli: not soluble

## MSLARSLNNQRSRLVALVVNAIGNPCEAEEQQLLVHRLQARQLLPIILCCADHSDRLQLMRLASTYQVDHVVVFSDMVSMQDAVDIFHTTKPIIVSFEPLENESVSSIRIDGAEAADEIIDKIVRDGKKRFAYLSGTNSSWIDKLRRKWFADALAKRGLAFEAQAFGDYSYDSGFKEAVLLLHRDKVDAIICGNDVMAIGARDAARRVLGKNTPDDIAIVGQDGIAMAAWDCNDLTTLSLDHVAFIDAVVELIERHDAEVEGPHSITLTCTARWGSEGHHHHHH
  soluble on expression in E. coli: not soluble

## MGSDKIHHHHHHMYLIRKKYITSLENILKKEGVIVDALSNDATIRYRSEEIGDEFTSVYNIQKLLNIAYASQGKESFGLLSYEYFHPGDYDIVNYIMMSSDNLLHALECLCRFSRLLYSGCQLTLDKKNTNTYCIGFTYLYPQDKNKEITRQFHELTVASLLAYCQWLTAANFTHFSSMEFSYPQPYGIRKYETLFACPMTFGTHRNCVYLNAEILLMPLVTSNASLFKLHEKHATCLIDILFNKTIKSRVRDSINKKLETGSCNIHSVASDLFMTPRTLQRRLEEEGAYFKDILEDVKMNLAEYYLIYSQYSLSQVAELVGYKDLSSFHRACLRWFRSSPGFFRERGCKKACLPMK
  soluble on expression in E. coli: not soluble

## MSITDVLSADDIAAALQECRDPDTFEPQKFFQTSGLSKMSANQVKDVFRFIDNDQSGYLDEEELKFFLQKFESGARELTESETKSLMAAADNDGDGKIGAEEFQEMVHS
  soluble on expression in E. coli: soluble

## MVPSRNGEGTELRGHMEIEKELALEKKTYGSHIKILILGGPLSGKSTIFKQMQIIHVDGFKTDQELIQYRGLIDNNIRDIYLQLIAGSRVVGIPLDPIEHITYEIDEIYAPMSDAFSVRTISELLEPLTEFWNSKQIQEIYKRRCEFELLDSTKYYLENLTRIADPTYLPNQEDIVHSRKATMSINSIVFEYTGVSLLMIDVGGQRSERKKWLHLFDDAKVVLFVIDLTGYAKRSEESRMELSRFPKFFRDVGSNAYDMKVALKIFNEVAAASALANAVFLLFFNKVDLFKEILSQVNLQPCFSKFDGENTYEETSKYICEKFIRAASSKKSVFPHFTTATNTENVKLVFRACMESVFKANAKATGLS
  soluble on expression in E. coli: not soluble

## MKGRLLDAVPLSSLTGVGAALSNKLAKINLHTVQDLLLHLPLRYEDRTHLYPIGELLPGVYATVEGEVLNCNISFGGRRMMTCQISDGSGILTMRFFNFSAAMKNSLAAGRRVLAYGEAKRGKYGAEMIHPEYRVQGDLSTPELQETLTPVYPTTEGVKQATLRKLTDQALDLLDTCAIEELLPPELSQGMMTLPEALRTLHRPPPTLQLSDLETGQHPAQRRLILEELLAHNLSMLALRAGAQRFHAQPLSANDTLKNKLLAALPFKPTGAQARVVAEIERDMALDVPMMRLVQGDVGSGKTLVAALAALRAIAHGKQVALMAPTELLAEQHANNFRNWFAPLGIEVGWLAGKQKGKARLAQQEAIASGQVQMIVGTHAIFQEQVQFNGLALVIIDEQHRFGVHQRLALWEKGQQQGFHPHQLIMTATPIPRTLAMTAYADLDTSVIDELPPGRTPVTTVAIPDTRRTDIIDRVHHACITEGRQAYWVCTLIEESELLEAQAAEATWEELKLALPELNVGLVHGRMKPAEKQAVMASFKQGELHLLVATTVIEVGVDVPNASLMIIENPERLGLAQLHQLRGRVGRGAVASHCVLLYKTPLSKTAQIRLQVLRDSNDGFVIAQKDLEIRGPGELLGTRQTGNAEFKVADLLRDQAMIPEVQRLARHIHERYPQQAKALIERWMPETERYSNA
  soluble on expression in E. coli: soluble

## MKHQHQHQHQHQHQQPLQEEEQAHATSLPPRASSPPQILPQLSPEQLGMIEKLVAAQQQCNRRSFSDRLRVTPWPMAPDPHSREARQQRFAHFTELAIVSVQEIVDFAKQLPGFLQLSREDQIALLKTSAIEVMLLETSRRYNPGSESITFLKDFSYNREDFAKAGLQVEFINPIFEFSRAMNELQLNDAEFALLIAISIFSADRPNVQDQLQVERLQHTYVEALHAYVSIHHPHDRLMFPRMLMKLVSLRTLSSVHSEQVFALRLQDKKLPPLLSEIWDVHE
  soluble on expression in E. coli: soluble

## MANRLRTGIDVLDRKLDGGIPAGSIVVLSAQPASQAELFLYELTATRGTLWLSLDRTAESVIASIEQTPANTGDPTVRHISGEAPLDNAGKLVSALPETSNLIVDPLDVLEAQEPHSRFRAFMNDLQNHIVNTGSLAIVHCLDGRDVPPLRDTTEHFADVVFQLNTTTNGDEVENRLAIPKFRGGRAPTDIIKLNLVEEVSIDTSRDIALEHHHHHH
  soluble on expression in E. coli: not soluble

## MTEKKFIQDPWAKMTTRNGLAGDEVISALQKSIRRGKEKDACEFAYEMYITSPQFEEKLWRRLLAISVEDIGMGNPIAALMINNLNMMRKEFQYNESDRAMFFFHAIRYLCGSEKDRSSDLLKNIVIKSFAMGYVPEIPDIALDKHTTRGQEMGRGSEHFLHEASKVIPQAKVENDYKEQYEEIIKKYDPNHVVPSTFVFNPWQVLEHHHHHH
  soluble on expression in E. coli: not soluble

## MGSDKIHHHHHHMGNYLVLQSDFGLSDGAVSAMYGVAYTVSDDIRVENLTHDIPPYDIWVASYRLYQTVKYWPKGTVFVSVVDPGVGSDRRSIACLTYSGHYIITPDNGSLSHIKHYEGIKKVIEIDEVKSRLPHSEESHTFHGRDVYAYNGARLAANKIAFERLGQAINVDSIEALEIREATKNEDSVTGSIDILDIRFGSLWTNIPLAFLKSLEIVHGNNLVVTIYHQDKKVYQNIIKFARSFADVNVGEPLVYVNSLVNIGVAVNQDSFSDLYHIGTGNDWTIHLSKAPSI
  soluble on expression in E. coli: not soluble

## MQDRNFDDIAEKFSRNIYGTTKGQLRQAILWQDLDRVLEEIGGRKLRVLDAGGGEGQTAIKMAERGHQVTLCDLSGEMIARARQAAEAKGVSKDMHFIQCPAQDVASHLESPVDLILFHAVLEWVADPVGVLETLWSVLRPGGALSLMFYNANGLLMHNMVAGNFDYVQAGMPKRKKRTLSPDYPRDPAQVYQWLEAIGWQITGKTGVRVFHDYLREKHQQRDCYETLVELETRYCRQEPYISLGRYIHVTAIKSPALAADARITYE
  soluble on expression in E. coli: not soluble

## MATVLIVGRPNVGKSTLFNKLVKKKKAIVEDEEGVTRDPVQDTVEWYGKTFKLVDTCGVFDNPQDIISQKMKEVTLNMIREADLVLFVVDGKRGITKEDESLADFLRKSTVDTILVANKAENLREFEREVKPELYSLGFGEPIPVSAEHNINLDTMLETIIKKLEEKGLDLESKPEITDAIKVAIVGRPNVGKSTLFNAILNKERALVSPIPGTTRDPVDDEVFIDGRKYVFVDTAGLRRKSRVEPRTVEKYSNYRVVDSIEKADVVVIVLDATQGITRQDQRMAGLMERRGRASVVVFNKWDLVVHREKRYDEFTKLFREKLYFIDYSPLIFTSADKGWNIDRMIDAMNLAYASYTTKVPSSAINSALQKVLAFTNLPRGLKIFFGVQVDIKPPTFLFFVNSIEKVKNPQKIFLRKLIRDYVFPFEGSPIFLKFKRSR
  soluble on expression in E. coli: soluble

## SQPIATQELQLGDELANKAFAATNRGDFVAAEDYWTQIIEKFPINAGAWINRGNSRVSQNKLEAALTDYNKAIELAPNLTDPYLNRGTALEGLGKWEDAIADYNYVLALDPNDAMAYNNRGNAKTGLGKWEDAISDYQKATAIAPNFAFARANYALALYETGQTDKAIREMRNIVRKYPKFADMRAALTAAYWVGGQKGEAESNWVAAYGLDTRYKDMDWVTNIRRWPPSMVAALDKFLKLN
  soluble on expression in E. coli: soluble

## MGSDKIHHHHHHMIETRQKQERVILIGVALPNSENFDLSMEELASLAKTAGAEVVQTHTQKRDHYDSKSFIGSGKLLEIKQIIATDAIDSVIVNNRLTPRQNAYLEAELGVKVIDRMQLILDIFAMRARSHEGKLQVHLAQLKYMLPRLVGQGIMLSRQAGGIGSRGPGESQLELNRRSIRKQIADIERQLKNAEKNRETNREKRLDSQIFKIGLIGYTNAGKSTIMNVLTDNKQYEADELFATLDATTKQIYLTDHFQATLTDTVGFIQDLPTELVAAFKSTLEESRQVDLLLHVIDASDPNHEEHEKVVHDLLKELGMTAIPRLLVYNKMDKAENFIASQFPHISLSAKSDEAAALLRQSILEKIKTLFVPFTITWRQEKSYKLYELDKIALLTSYDVKQELQEIKGYISEKNKWRLEEFYRELS
  soluble on expression in E. coli: not soluble

## MGSDKIHHHHHHMPKYLVFMDIDGTLLTDHQYVSERTRATIERFQKQDVLFYIATGRMYELAKIVRDKVNADVRLVTSNGAVFDGAQGRELTKLGGAAVELAYLIARRDNLPMMLFTPDMAYYTEQIPRFVARNAANFDADEVSIGYEEVKSFTQLATIEDQITNGVILSREDMSRLDSAREKLTNSKLLRLSSSNPNNIEMIPLNTDKGTAVKQIQREQHVDAAHTFVFGDGLNDVGMMAEADLSVAMGNALPQVKKVANYVTDMNYNDGLALFLEKYFAAHPLSTTK
  soluble on expression in E. coli: not soluble

## MGIDYNRWWHLKDETLGEELKGYIKMIEEDYLVYSGTTSQLHVSKLSNGSVNSIVNEILEQQGSWSIIYYNQKLKKLFIGRDVFGRQSLVFNFESMIFGCRTKPETSGKWIEIPFGQVTVFSLDSTDPVIYSYLDEYPENVLDGYFSGSDISRIVVNKKHGLLNVSRSTGGEIDSFNTKDLFQKVIDATKILLKNYHESHVAVCLSGGVDSTFVAHVVHSSVPENMQIDLINVAFGNSEKECEQAPDRKRARKALESFRTAYPTRQFRLILVNVDSQTLEVNRKESISDAAQPASSVLDDSLSCVLWFAVRAEGVDSENQQSVRSPATTCLLGSGADELLAGYARHRTRFEKEQIPENVAEECENELRRLGSRNGGRDARVAAQLGKTILSPLLEDTVVTWLNALPVDSKWDLSLPRGVGEKQLLRETVKMLGSPYDAPKQAMQFGSRMAKMSNAGDNSIKGSDKSPHLLKTDVN
  soluble on expression in E. coli: not soluble

## MGSDKIHHHHHHMTTSSVRYPQRVRNELRFRELIVLRVERISAGFQRIVLGGEALDGFISLGFDDHTKVFFPEPGCRFTPPTVTEEGIIWGEGVRPVSRDYTPLYDEARRELALDFFIHDGGVASRWAMEAREGDTLTIGGPRGSLVVPEEYACQVYVCDESGMPALRRRLESLSRLPVRPAVTALVSIQDAAYRDYLAHLTDITVEYVVGGDEQAMQTRLSQLTIPESDYFIWITGEGKTVKRLSQCFEKGFDPHLVRAAAYWHRK
  soluble on expression in E. coli: not soluble

## MYRFCVALTPSTSEDEQVVRKSEKPASKPPTPEVEDCTFSEKNNDQRKIEKETESEESSNLKFPPARPSIRNATNFRRIICISESDSGKEEPVVKKEVLKTNKLRISETKPEYPPELLQLEARLQELRAGRKNKQGRINRKFVAKPCGVVSGETPQRPFLEEMYYFNPQETGTASEIFDMLFPAKDTPNFRPWLDGHFSAPDLQFKQIEKQRQTKLHSYTGTTLQEKKRKKRKKILKSIQEILWLLHFQKHDDFLESTSRLTIKNFSCHFDEHQRLKLLRNNDLSLICNYQIGSENTPIFNQRSTDCMLRPVFIDGLSFMDMLIPISSSLPIISTRSLLEILLNFILDGCQTVIYLPDYYNDTTNQKVDDSTIFQFLCNSKLIQFVDGRSRRAVERQVLLEAEKVHGVFVSSAEEFLTRNAIQCFPVINRYSKRLDEFLICTVFLVNNLPKKILAQDFVEESRVLKPEGSSSAVSSTTVLEESHQKISGAMEDSEDEPADPQTLKQEYLIKEECSEISEDSEEGAIVDVASSSGDLSENRDQKSENEEFEYSPHQLTLEQQTYLISSMAQLSIFHFQRYRQIRVFLMIIKRYVPELLPSFMQKTRMDDVAMAIQDIQNGKDLLYWPIFSKIDN
  soluble on expression in E. coli: not soluble
